This is an account of results in patent publication US20090136500A1 (CISTHERA, published 2009).

The target of one assay is T1, mouse PAI-1 (mouse, UniProt P22777 23-402, limits assumed, n-terminal biotin label (in the P-ELISA)).
T1 construct: also called murine PAI-1
T1 sequence (looked up): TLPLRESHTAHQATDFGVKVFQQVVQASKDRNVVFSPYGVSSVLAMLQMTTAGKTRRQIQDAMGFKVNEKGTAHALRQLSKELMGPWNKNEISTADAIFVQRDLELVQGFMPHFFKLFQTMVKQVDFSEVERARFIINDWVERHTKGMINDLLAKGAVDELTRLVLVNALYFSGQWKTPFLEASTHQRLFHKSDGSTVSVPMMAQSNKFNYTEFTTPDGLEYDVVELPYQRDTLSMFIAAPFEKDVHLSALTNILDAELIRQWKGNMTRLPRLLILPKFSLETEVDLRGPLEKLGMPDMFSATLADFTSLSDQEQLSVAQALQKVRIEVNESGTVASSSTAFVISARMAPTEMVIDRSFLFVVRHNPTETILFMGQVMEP
The assay can be described thus: P-ELISA.

For the next assay, the target named is T2, rat PAI-1 (rat, UniProt P20961 24-402, n-terminal biotin label (in the P-ELISA)).
T2 sequence (looked up): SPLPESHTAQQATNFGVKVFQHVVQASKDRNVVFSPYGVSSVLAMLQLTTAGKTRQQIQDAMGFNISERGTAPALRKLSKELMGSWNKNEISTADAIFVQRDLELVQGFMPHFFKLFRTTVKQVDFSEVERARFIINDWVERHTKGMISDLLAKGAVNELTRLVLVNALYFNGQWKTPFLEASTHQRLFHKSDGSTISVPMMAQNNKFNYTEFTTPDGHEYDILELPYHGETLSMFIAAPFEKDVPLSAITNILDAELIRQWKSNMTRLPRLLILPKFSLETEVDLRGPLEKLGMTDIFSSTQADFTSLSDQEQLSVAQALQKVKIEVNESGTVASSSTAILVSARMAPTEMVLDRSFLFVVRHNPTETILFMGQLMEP
The experiment in a line: P-ELISA: biotin-labeled PAI-1 on streptavidin/Neutravidin coated wells, HRP-conjugated secondary antibody, O.D. 450. Target taken from the title printed in the panel; the legend paragraph 67 names FIG. 12C as mouse. Here is the method:
All reagents are brought to room temperature (18-23° C.) and dilutions are made in Wash Buffer (1×TBS, 0.1% BSA, 0.05% Tween). Briefly, protocol steps are as follows: [0546] Add 100 μL of Neutravidin™ Pierce#31000 (0.5 μg/ml in TBS) to 96-well Immulon-4 plates. Incubate 1 hour at room temperature (RT). [0547] Wash wells 3 times with 200 μl Wash Buffer. [0548] Add 50 μL of biotinylated biomolecule (0.06 nM) Incubate 1 hour at RT. [0549] Wash plate 3 times in Wash Buffer. [0550] Add 100 μL of 1° Ab Incubate 30 min RT [0551] Wash plate 3 times in Wash Buffer. [0552] Add 50 μL of […] (1:10,000) Incubate 30 min RT [0553] Wash plate 4 times in Wash Buffer. [0554] Add 100 μl TMB Reagent (substrate). Incubate at room temperature. [0555] Add 100 μL of 2 M Sulfuric Acid to stop development of the substrate. [0556] Plates were read using a […] filter with a 615-620 nm filter as the reference.
Binding of CT140 to rat, mouse, rabbit and human PAI-1 was determined by P-ELISA (see FIG. 12). The relative affinity of CT140 is human=rabbit>mouse>rat (FIG. 12A, FIG. 12B, FIG. 12C and FIG. 12D, respectively).
Background: An ELISA detects its analyte on a solid surface through an enzyme-linked reagent.

Assay [1] has as its target T3, PAI-1 (antigen of Example 11, species not stated).
T3 construct: Its method text reads as if hP-1 and mP-1 were the antigens run over captured antibody, that is human and mouse PAI-1
The experiment in a line: SPR-type biosensor, antibody captured on anti-human IgG surface at 5 densities, 25 C, global 1:1 fit. The protocol:
This experiment was conducted to measure the binding constants for hP-1 (humanized mAb CT140) and mP-1 (mouse antibody 33B8).
hP-1 was captured onto an anti-human IgG surface (Cat-tag goat mAb) at 5 different surface densities. hP-1 and mP-1 were diluted to a starting concentration of 100 nM and tested in a 3-fold dilution series using PBS with 0.005% Tween-20 and 0.1 mg/ml BSA. Binding data were collected at 25° C. The association phase was monitored for 5 minutes and the dissociation phase was monitored for 2.5 hours. The response data for each antigen over the 5 different density mAb surfaces were globally fit to a simple 1:1 interaction model. A fit to the data was determined (data not shown) a binding constants were determined at 25° C.

The term Kd denotes a measure of binding affinity in units of concentration. A low value points to a tighter complex. By koff is commonly meant the rate constant with which the complex falls apart. Read a low koff as a long-lived complex. As a reminder, the kon is the rate constant with which the complex forms. High values mean faster complex formation, low ones slower complex formation.

T3 sequence (P05121 24-402): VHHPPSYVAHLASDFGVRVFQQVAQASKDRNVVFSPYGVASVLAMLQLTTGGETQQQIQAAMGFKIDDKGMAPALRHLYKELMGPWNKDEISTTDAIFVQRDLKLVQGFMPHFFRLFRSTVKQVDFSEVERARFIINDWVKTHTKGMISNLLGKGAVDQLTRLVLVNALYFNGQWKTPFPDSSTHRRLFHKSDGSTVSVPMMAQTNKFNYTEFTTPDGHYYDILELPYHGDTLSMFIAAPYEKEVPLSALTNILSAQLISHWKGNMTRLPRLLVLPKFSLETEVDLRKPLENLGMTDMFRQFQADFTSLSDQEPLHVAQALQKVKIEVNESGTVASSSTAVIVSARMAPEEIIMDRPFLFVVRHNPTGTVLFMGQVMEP

B1: CT140 (humanized version of murine monoclonal antibody 33B8, IgG4 with the hinge of IgG1) (antibody, V domains shown)
VH: QVQLVQSGAEVKKPGASVKVSCKASGYTFTNYGMNWVRQAPGQGLEWMGWINTYTGEPTYTDDFKGRFTMTLDTSISTAYMELSRLRSDDTAVYYCAKDVSGFVFDYWGQGTLVTVSS
VL: DIVMTQSPDSLAVSLGERATINCKSSQSLLNIIKQKNCLAWYQQKPGQPPKLLIYWASTRESGVPDRFSGSGSGTDFTLTISSLQAEDVAVYYCQQYYSYPYTFGQGTKLEIKR
notes: also called hP-1; humanized mAb CT140
B1: the “fold greater affinity relative to the parent mouse anti-PAI-1” value in the assay with mouse PAI-1 is over 10 fold. In addition, the binding result in the assay with rat PAI-1 was “binds”. Further, in assay [1], the Kd came to 15 pM, the koff was 8e-06 s⁻¹ and the kon was found to be 530000 M⁻¹ s⁻¹.
